B1: GLI1_(1-232) S102E S116E S130E, 35S-radiolabeled (domain or fragment, human, UniProt P08151-1 1-232, looked up)
chain: MFNSMTPPPISSYGEPCCLRPLPSQGAPSVGTEGLSGPPFCHQANLMSGPHSYGPARETNSCTEGPLFSSPRSAVKLTKKRALSISPLSDASLDLQTVIRTEPSSLVAFINSRCTEPGGSYGHLSIGTMEPSLGFPAQMNHQKGPSPSFGVQPCGPHDSARGGMIPHPQSRGPFPTCQLKSELDMLVGKCREEPLEGDMSSPNSTGIQDPLLGMLDGREDLEREEKREPESV
modifications: [35S]-methionine label
notes: also called S102E S116E S130E triple mutant; EEE; source: in vitro transcription/translation (T7), partially purified by ammonium sulfate precipitation
B2: GLI1_(1-232) S102E S116E, 35S-radiolabeled (domain or fragment, human, UniProt P08151-1 1-232, looked up)
chain: MFNSMTPPPISSYGEPCCLRPLPSQGAPSVGTEGLSGPPFCHQANLMSGPHSYGPARETNSCTEGPLFSSPRSAVKLTKKRALSISPLSDASLDLQTVIRTEPSSLVAFINSRCTEPGGSYGHLSIGTMSPSLGFPAQMNHQKGPSPSFGVQPCGPHDSARGGMIPHPQSRGPFPTCQLKSELDMLVGKCREEPLEGDMSSPNSTGIQDPLLGMLDGREDLEREEKREPESV
modifications: [35S]-methionine label
notes: also called S102E S116E double mutant; source: in vitro transcription/translation (T7), partially purified by ammonium sulfate precipitation
B3: GLI1_(1-232) S102E S130E, 35S-radiolabeled (domain or fragment, human, UniProt P08151-1 1-232, looked up)
chain: MFNSMTPPPISSYGEPCCLRPLPSQGAPSVGTEGLSGPPFCHQANLMSGPHSYGPARETNSCTEGPLFSSPRSAVKLTKKRALSISPLSDASLDLQTVIRTEPSSLVAFINSRCTSPGGSYGHLSIGTMEPSLGFPAQMNHQKGPSPSFGVQPCGPHDSARGGMIPHPQSRGPFPTCQLKSELDMLVGKCREEPLEGDMSSPNSTGIQDPLLGMLDGREDLEREEKREPESV
modifications: [35S]-methionine label
notes: also called S102E S130E double mutant; source: in vitro transcription/translation (T7), partially purified by ammonium sulfate precipitation
B4: GLI1_(1-232) S102E, 35S-radiolabeled (domain or fragment, human, UniProt P08151-1 1-232, looked up)
chain: MFNSMTPPPISSYGEPCCLRPLPSQGAPSVGTEGLSGPPFCHQANLMSGPHSYGPARETNSCTEGPLFSSPRSAVKLTKKRALSISPLSDASLDLQTVIRTEPSSLVAFINSRCTSPGGSYGHLSIGTMSPSLGFPAQMNHQKGPSPSFGVQPCGPHDSARGGMIPHPQSRGPFPTCQLKSELDMLVGKCREEPLEGDMSSPNSTGIQDPLLGMLDGREDLEREEKREPESV
modifications: [35S]-methionine label
notes: source: in vitro transcription/translation (T7), partially purified by ammonium sulfate precipitation
B5: GLI1_(1-232) S105F (tumor-derived), 35S-radiolabeled (domain or fragment, human, UniProt P08151-1 1-232, looked up)
chain: MFNSMTPPPISSYGEPCCLRPLPSQGAPSVGTEGLSGPPFCHQANLMSGPHSYGPARETNSCTEGPLFSSPRSAVKLTKKRALSISPLSDASLDLQTVIRTSPSFLVAFINSRCTSPGGSYGHLSIGTMSPSLGFPAQMNHQKGPSPSFGVQPCGPHDSARGGMIPHPQSRGPFPTCQLKSELDMLVGKCREEPLEGDMSSPNSTGIQDPLLGMLDGREDLEREEKREPESV
modifications: [35S]-methionine label
notes: source: in vitro transcription/translation, partially purified by ammonium sulfate precipitation
B6: GST-GLI1^7A (GST-GLI1_(68-232) with all seven SP serines changed to alanine), mock treated (domain or fragment, human, UniProt P08151-1 68-232, looked up)
chain: FSAPRSAVKLTKKRALSIAPLSDASLDLQTVIRTAPSSLVAFINSRCTAPGGSYGHLSIGTMAPSLGFPAQMNHQKGPAPSFGVQPCGPHDSARGGMIPHPQSRGPFPTCQLKSELDMLVGKCREEPLEGDMSAPNSTGIQDPLLGMLDGREDLEREEKREPESV
notes: source: bacteria, purified (glutathione-Sepharose); mock treated (no ERK2)
B7: GST-GLI1^7A, treated with active ERK2 (domain or fragment, human, UniProt P08151-1 68-232, looked up)
chain: FSAPRSAVKLTKKRALSIAPLSDASLDLQTVIRTAPSSLVAFINSRCTAPGGSYGHLSIGTMAPSLGFPAQMNHQKGPAPSFGVQPCGPHDSARGGMIPHPQSRGPFPTCQLKSELDMLVGKCREEPLEGDMSAPNSTGIQDPLLGMLDGREDLEREEKREPESV
modifications: treated with ERK2; only minimally phosphorylated
notes: also called 7A+ERK2; ERK2-treated GLI1^7A; source: bacteria, purified (glutathione-Sepharose); then treated with purified active ERK2
B8: GST-GLI1^AAA (GST-GLI1_(68-232) S102A S116A S130A), mock treated (domain or fragment, human, UniProt P08151-1 68-232, looked up)
chain: FSSPRSAVKLTKKRALSISPLSDASLDLQTVIRTAPSSLVAFINSRCTAPGGSYGHLSIGTMAPSLGFPAQMNHQKGPSPSFGVQPCGPHDSARGGMIPHPQSRGPFPTCQLKSELDMLVGKCREEPLEGDMSSPNSTGIQDPLLGMLDGREDLEREEKREPESV
notes: as for B6
B9: GST-GLI1^AAA, treated with active ERK2 (domain or fragment, human, UniProt P08151-1 68-232, looked up)
chain: FSSPRSAVKLTKKRALSISPLSDASLDLQTVIRTAPSSLVAFINSRCTAPGGSYGHLSIGTMAPSLGFPAQMNHQKGPSPSFGVQPCGPHDSARGGMIPHPQSRGPFPTCQLKSELDMLVGKCREEPLEGDMSSPNSTGIQDPLLGMLDGREDLEREEKREPESV
modifications: treated with ERK2; S70, S86, S146 and S201 remained intact as possible phosphosites
notes: also called GLI1^AAA + ERK2; source: bacteria, purified (glutathione-Sepharose); then phosphorylated with purified active ERK2
B10: GST-GLI1^SSS (GST-GLI1_(68-232) S70A S86A S146A S201A), mock treated (domain or fragment, human, UniProt P08151-1 68-232, looked up)
chain: FSAPRSAVKLTKKRALSIAPLSDASLDLQTVIRTSPSSLVAFINSRCTSPGGSYGHLSIGTMSPSLGFPAQMNHQKGPAPSFGVQPCGPHDSARGGMIPHPQSRGPFPTCQLKSELDMLVGKCREEPLEGDMSAPNSTGIQDPLLGMLDGREDLEREEKREPESV
notes: only S102, S116 and S130 left intact; source: bacteria, purified (glutathione-Sepharose); mock treated (no ERK2)

Legend:
[1] = target: T1, GST-SUFU (fusion of GST to full-length human SUFU) (human, UniProt Q9UMX1-1 1-484); assay: pull-down; purified GST-SUFU, 1.25-80 nM, captured on glutathione-Sepharose beads; ∼1 pmol 35S-GLI1 (1-232 or full length) in 200 μl; 15 min at 30°C, then 1 h at room temperature; Binding Buffer + 1 mg/ml BSA; bound GLI1 quantified by SDS-PAGE and Phosphorimager; Kd from binding isotherms; details: one partner purified
T1 construct: human SUFU, full length (residues 1-484), BamHI-SUFU-SalI cassette in pGEX-LB; pGEX-LB carries a Gly-Gly-Gly-Gly-Gly-Ser-Gly stretch between GST and the fused protein; also called full-length GST-SUFU; source: Escherichia coli, purified (glutathione-Sepharose); not shown: GST, N-terminal, kept
T1 sequence (looked up): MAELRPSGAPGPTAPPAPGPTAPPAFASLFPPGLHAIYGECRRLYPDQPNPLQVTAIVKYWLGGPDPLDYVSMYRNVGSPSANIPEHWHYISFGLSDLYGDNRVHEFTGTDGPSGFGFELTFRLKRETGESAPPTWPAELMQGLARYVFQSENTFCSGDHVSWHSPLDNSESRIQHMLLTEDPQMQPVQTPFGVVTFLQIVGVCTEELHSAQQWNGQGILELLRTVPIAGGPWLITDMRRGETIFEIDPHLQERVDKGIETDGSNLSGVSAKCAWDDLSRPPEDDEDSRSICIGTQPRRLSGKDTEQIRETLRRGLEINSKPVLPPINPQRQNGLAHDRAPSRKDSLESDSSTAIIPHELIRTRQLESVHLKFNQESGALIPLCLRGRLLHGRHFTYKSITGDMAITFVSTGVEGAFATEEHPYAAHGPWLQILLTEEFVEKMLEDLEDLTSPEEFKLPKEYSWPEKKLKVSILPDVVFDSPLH

[2] = target: T2, full-length human SUFU protein, 35S-radiolabeled (human, UniProt Q9UMX1-1 1-484, [35S]-methionine label); assay: pull-down; purified GST-GLI1_(68-232) variants (mock treated or ERK2 phosphorylated), 0 or 1.25-80 nM, on glutathione-Sepharose beads; ∼1 pmol 35S-SUFU in 200 μl; 15 min at 30°C, then 1 h at room temperature; Binding Buffer (20 mM Tris-HCl pH 7.5, 125 mM KOAc, 0.5 mM EDTA, 5 mM DTT, 0.1% Tween20, 12.5% glycerol) + 1 mg/ml BSA; bound SUFU quantified by SDS-PAGE and Phosphorimager; Kd from binding isotherms; details: one partner purified
T2 construct: human SUFU, full length, residues 1-484, from plasmid pGEM4Z-SUFU; also called 35S-SUFU; radiolabeled SUFU; source: in vitro transcription and translation (SP6, Promega), partially purified by ammonium sulfate precipitation
T2 sequence (looked up): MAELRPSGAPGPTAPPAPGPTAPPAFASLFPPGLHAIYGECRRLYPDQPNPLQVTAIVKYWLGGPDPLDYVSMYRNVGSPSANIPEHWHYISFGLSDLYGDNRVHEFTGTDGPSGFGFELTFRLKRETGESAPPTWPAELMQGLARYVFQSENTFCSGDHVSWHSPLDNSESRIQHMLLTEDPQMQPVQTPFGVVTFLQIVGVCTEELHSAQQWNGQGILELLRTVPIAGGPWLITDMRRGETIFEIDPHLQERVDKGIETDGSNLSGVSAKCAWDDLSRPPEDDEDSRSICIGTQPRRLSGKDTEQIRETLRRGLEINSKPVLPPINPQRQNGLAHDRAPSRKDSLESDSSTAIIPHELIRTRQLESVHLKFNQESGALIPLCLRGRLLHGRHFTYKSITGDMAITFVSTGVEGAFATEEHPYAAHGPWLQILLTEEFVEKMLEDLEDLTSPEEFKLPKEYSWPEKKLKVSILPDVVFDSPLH

Binder	fold reduction in affinity against wild-type GLI1_(1-232) [1] [fold]	Kd [2] [nM]	other results
B1	65		
B2	12		
B3	38		
B4	~8		
B5			Kd [1]: 181 ± 30 nM
B6		~23	
B7		~23	
B8		17	
B9		20	
B10		2.6	
